Laboratory results reported in US20190185537A1 (AstraZeneca / MedImmune, published 2019).
Positions count from the first letter of the chain named. Numbers in names are those of the source. Where two headings read alike, the source gives them in different places. Numbered stars: 1 amine (or outer) side, 2 acyl side, 3 side chain; on linkers, the order of the positions; unused ones are H or OH. Side chains are listed from the residue outwards. Ends that are not written are not given here. * marks the point of attachment. γGlu = O=C(O)[C@H](CCC(=O)[*:2])N[*:1]; Palmitoyl = CCCCCCCCCCCCCCCC(=O)*

Key:
human glucagon receptor [1] = target: T1, human glucagon receptor (human, UniProt P47871 26-477); test: cell-based or functional assay
human GLP-1 receptor [2] = target: T2, human GLP-1 receptor (human, UniProt P43220 24-463); test: cell-based or functional assay
human glucagon receptor [3] = target: T1, human glucagon receptor; test: cell-based or functional assay; remark: listed apart in the source
human GLP-1 receptor [4] = target: T2, human GLP-1 receptor; test: cell-based or functional assay; remark: listed apart in the source
[5] = target: T3, human glucose-dependent insulinotropic peptide (gastric inhibitory polypeptide) receptor (human, UniProt P48546 22-466); test: cell-based or functional assay
T3 sequence (looked up): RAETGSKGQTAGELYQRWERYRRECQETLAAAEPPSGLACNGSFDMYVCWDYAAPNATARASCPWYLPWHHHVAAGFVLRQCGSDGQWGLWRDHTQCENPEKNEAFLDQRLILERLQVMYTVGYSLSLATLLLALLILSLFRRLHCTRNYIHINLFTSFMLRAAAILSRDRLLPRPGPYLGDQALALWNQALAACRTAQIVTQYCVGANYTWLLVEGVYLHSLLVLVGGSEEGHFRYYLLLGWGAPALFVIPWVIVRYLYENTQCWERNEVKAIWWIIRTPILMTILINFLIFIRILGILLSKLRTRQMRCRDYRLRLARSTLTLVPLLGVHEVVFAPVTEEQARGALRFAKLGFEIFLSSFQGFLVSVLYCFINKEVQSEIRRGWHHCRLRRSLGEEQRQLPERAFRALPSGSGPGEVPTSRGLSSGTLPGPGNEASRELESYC

human glucagon receptor [6] = target: T1, human glucagon receptor; test: cell-based or functional assay; remark: listed apart in the source
human GLP-1 receptor [7] = target: T2, human GLP-1 receptor; test: cell-based or functional assay; remark: listed apart in the source
[8] = target: T3, human glucose-dependent insulinotropic …; test: cell-based or functional assay; remark: listed apart in the source
human glucagon receptor [9] = target: T1, human glucagon receptor; test: cell-based or functional assay; remark: listed apart in the source
mouse GLP-1 receptor = target: T4, mouse GLP-1 receptor (mouse, UniProt O35659 22-463); test: cell-based or functional assay
T4 sequence (looked up): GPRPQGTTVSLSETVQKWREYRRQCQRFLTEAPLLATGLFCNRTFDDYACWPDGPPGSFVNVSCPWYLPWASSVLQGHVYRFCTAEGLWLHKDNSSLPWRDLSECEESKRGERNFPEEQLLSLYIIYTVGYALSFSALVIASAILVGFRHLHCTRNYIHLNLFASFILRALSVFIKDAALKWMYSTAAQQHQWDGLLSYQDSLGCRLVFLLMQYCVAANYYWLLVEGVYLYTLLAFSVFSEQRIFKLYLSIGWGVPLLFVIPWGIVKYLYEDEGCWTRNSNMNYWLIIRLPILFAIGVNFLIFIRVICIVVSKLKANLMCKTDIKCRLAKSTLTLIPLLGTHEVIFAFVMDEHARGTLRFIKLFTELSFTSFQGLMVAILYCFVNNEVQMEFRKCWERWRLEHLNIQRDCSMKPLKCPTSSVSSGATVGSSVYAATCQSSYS

mouse glucagon receptor = mouse glucagon receptor (mouse, UniProt Q61606 27-485); test: cell-based or functional assay
human GLP-1 receptor [10] = target: T2, human GLP-1 receptor; test: cell-based or functional assay; remark: listed apart in the source
[11] = target: human GLP-1 receptor (human) (UniProt P43220); test: cell-based or functional assay
[12] = target: human glucagon receptor (human) (UniProt P47871); test: cell-based or functional assay
rat glucagon receptor = rat glucagon receptor (rat, UniProt P30082 27-485); test: cell-based or functional assay
rat GLP-1 receptor = target: T5, rat GLP-1 receptor (rat, UniProt P32301 22-463); test: cell-based or functional assay
T5 sequence (looked up): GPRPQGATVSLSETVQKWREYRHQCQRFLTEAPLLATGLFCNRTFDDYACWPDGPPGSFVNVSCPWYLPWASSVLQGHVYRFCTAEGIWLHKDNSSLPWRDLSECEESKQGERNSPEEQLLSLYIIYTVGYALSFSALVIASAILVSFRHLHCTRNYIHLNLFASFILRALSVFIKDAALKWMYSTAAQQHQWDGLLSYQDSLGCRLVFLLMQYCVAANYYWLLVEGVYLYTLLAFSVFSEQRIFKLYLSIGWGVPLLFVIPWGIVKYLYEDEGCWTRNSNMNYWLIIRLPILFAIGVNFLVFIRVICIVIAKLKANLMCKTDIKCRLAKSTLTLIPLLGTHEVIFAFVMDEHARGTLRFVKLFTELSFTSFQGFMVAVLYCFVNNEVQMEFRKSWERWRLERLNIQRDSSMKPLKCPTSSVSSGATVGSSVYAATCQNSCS

[13] = target: human serum albumin (human) (UniProt P02768); test: calculated from the variation in cAMP generation with the HSA concentration
human GLP-1 receptor [14] = target: T2, human GLP-1 receptor; test: cell-based or functional assay; remark: listed apart in the source
[15] = target: T6, human glucose-dependent insulinotropic peptide (gastric inhibitory polypeptide) receptor (human) (UniProt P48546); test: cell-based or functional assay
T6 sequence (looked up): T3 sequence (looked up)

T1 sequence (P47871 26-477): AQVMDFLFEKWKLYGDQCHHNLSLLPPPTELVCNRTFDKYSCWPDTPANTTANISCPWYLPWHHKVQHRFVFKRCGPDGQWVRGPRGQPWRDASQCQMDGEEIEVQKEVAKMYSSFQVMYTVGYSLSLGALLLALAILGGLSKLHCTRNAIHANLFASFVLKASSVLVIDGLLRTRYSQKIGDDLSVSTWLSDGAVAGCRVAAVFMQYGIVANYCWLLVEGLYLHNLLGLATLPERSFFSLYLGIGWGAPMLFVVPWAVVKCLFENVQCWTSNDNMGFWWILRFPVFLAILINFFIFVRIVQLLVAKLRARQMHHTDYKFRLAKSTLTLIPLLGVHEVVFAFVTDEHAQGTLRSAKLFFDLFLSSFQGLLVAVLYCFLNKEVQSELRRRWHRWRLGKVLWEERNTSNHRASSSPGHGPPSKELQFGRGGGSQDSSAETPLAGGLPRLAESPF
Sequence of mouse glucagon receptor (Q61606 27-485): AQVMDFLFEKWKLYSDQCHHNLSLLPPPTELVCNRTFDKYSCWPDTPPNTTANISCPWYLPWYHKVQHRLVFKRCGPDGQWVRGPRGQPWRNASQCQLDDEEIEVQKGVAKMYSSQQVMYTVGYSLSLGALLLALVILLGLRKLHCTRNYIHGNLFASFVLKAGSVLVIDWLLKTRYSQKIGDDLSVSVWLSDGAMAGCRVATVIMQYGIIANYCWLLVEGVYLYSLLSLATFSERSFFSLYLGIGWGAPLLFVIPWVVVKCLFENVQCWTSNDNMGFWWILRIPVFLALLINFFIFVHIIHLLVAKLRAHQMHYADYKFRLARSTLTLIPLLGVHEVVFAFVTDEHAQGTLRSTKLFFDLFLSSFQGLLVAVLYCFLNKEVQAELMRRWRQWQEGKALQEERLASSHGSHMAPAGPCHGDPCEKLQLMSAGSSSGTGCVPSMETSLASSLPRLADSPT
Sequence of rat glucagon receptor (P30082 27-485): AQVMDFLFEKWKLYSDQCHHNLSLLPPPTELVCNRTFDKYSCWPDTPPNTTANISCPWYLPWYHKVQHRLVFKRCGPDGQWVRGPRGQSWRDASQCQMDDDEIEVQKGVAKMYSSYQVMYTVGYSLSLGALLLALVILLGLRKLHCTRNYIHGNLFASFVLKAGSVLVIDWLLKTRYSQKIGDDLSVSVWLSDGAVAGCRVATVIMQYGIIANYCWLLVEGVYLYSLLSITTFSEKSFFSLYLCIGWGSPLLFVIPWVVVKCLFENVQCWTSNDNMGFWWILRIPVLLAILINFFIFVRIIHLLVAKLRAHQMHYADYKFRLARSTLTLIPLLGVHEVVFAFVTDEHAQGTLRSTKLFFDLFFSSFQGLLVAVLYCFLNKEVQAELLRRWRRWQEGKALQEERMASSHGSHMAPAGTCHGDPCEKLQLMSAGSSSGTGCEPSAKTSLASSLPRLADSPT
Sequence of human glucagon receptor (human) (P47871 26-477): as the sequence (P47871 26-477) above
Sequence of human GLP-1 receptor (human) (P43220 24-463): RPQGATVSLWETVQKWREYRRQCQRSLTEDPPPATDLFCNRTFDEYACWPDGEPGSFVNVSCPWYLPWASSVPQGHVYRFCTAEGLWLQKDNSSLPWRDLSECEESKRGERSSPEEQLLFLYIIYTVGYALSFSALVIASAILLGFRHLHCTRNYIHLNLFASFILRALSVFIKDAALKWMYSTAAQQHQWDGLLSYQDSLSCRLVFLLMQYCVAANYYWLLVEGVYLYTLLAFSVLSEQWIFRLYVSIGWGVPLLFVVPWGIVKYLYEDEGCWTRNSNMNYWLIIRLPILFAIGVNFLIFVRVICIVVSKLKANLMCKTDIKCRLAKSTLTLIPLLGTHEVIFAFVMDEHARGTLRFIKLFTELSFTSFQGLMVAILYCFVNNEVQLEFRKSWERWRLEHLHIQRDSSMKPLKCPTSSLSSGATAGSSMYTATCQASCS
Sequence of human serum albumin (human) (P02768 25-609 limits assumed): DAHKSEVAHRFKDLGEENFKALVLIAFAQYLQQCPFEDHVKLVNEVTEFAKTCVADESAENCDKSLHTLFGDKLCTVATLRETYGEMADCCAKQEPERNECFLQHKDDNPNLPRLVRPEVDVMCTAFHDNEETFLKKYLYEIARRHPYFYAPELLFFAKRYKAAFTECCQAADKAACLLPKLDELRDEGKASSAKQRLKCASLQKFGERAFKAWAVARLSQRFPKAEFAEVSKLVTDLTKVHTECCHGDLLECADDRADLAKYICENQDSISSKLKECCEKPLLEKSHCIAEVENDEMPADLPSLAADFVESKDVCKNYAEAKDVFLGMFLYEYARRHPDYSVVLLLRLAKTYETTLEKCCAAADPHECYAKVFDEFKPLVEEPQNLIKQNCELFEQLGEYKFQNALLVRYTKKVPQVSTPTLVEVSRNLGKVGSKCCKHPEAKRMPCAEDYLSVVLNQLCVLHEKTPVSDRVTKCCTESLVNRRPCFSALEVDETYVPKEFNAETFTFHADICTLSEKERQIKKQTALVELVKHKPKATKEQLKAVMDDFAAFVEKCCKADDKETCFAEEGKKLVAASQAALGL

B1: G931 (peptide)
peptide: HSQGTFTSDYSKK([γGlu-Palmitoyl])LDSERARDFVAWLVAGG-OH
modifications: N-terminus assumed
SMILES: CCCCCCCCCCCCCCCC(=O)N[C@@H](CCC(=O)NCCCC[C@H](NC(=O)[C@H](CCCCN)NC(=O)[C@H](CO)NC(=O)[C@H](Cc1ccc(O)cc1)NC(=O)[C@H](CC(=O)O)NC(=O)[C@H](CO)NC(=O)[C@@H](NC(=O)[C@H](Cc1ccccc1)NC(=O)[C@@H](NC(=O)CNC(=O)[C@H](CCC(N)=O)NC(=O)[C@H](CO)NC(=O)[C@@H](N)Cc1c[nH]cn1)[C@@H](C)O)[C@@H](C)O)C(=O)N[C@@H](CC(C)C)C(=O)N[C@@H](CC(=O)O)C(=O)N[C@@H](CO)C(=O)N[C@@H](CCC(=O)O)C(=O)N[C@@H](CCCNC(=N)N)C(=O)N[C@@H](C)C(=O)N[C@@H](CCCNC(=N)N)C(=O)N[C@@H](CC(=O)O)C(=O)N[C@@H](Cc1ccccc1)C(=O)N[C@H](C(=O)N[C@@H](C)C(=O)N[C@@H](Cc1c[nH]c2ccccc12)C(=O)N[C@@H](CC(C)C)C(=O)N[C@H](C(=O)N[C@@H](C)C(=O)NCC(=O)NCC(=O)O)C(C)C)C(C)C)C(=O)O
cAMP EC50 (assay 1) (human glucagon receptor [1]): 0.0178 nM
cAMP EC50 (assay 1) (human GLP-1 receptor [2]): 0.13 nM

B2: G380 (peptide)
peptide: HGQGTFTSDYSKYLDSK([γGlu-Palmitoyl])RAQDFVQWLVAGG-NH2
modifications: N-terminus assumed
SMILES: CCCCCCCCCCCCCCCC(=O)N[C@@H](CCC(=O)NCCCC[C@H](NC(=O)[C@H](CO)NC(=O)[C@H](CC(=O)O)NC(=O)[C@H](CC(C)C)NC(=O)[C@H](Cc1ccc(O)cc1)NC(=O)[C@H](CCCCN)NC(=O)[C@H](CO)NC(=O)[C@H](Cc1ccc(O)cc1)NC(=O)[C@H](CC(=O)O)NC(=O)[C@H](CO)NC(=O)[C@@H](NC(=O)[C@H](Cc1ccccc1)NC(=O)[C@@H](NC(=O)CNC(=O)[C@H](CCC(N)=O)NC(=O)CNC(=O)[C@@H](N)Cc1c[nH]cn1)[C@@H](C)O)[C@@H](C)O)C(=O)N[C@@H](CCCNC(=N)N)C(=O)N[C@@H](C)C(=O)N[C@@H](CCC(N)=O)C(=O)N[C@@H](CC(=O)O)C(=O)N[C@@H](Cc1ccccc1)C(=O)N[C@H](C(=O)N[C@@H](CCC(N)=O)C(=O)N[C@@H](Cc1c[nH]c2ccccc12)C(=O)N[C@@H](CC(C)C)C(=O)N[C@H](C(=O)N[C@@H](C)C(=O)NCC(=O)NCC(N)=O)C(C)C)C(C)C)C(=O)O
cAMP EC50 (assay 1) (human glucagon receptor [3]): 0.217 nM
cAMP EC50 (assay 1) (human GLP-1 receptor [4]): 0.077 nM
cAMP EC50 (assay 1) [5]: 130 nM
cAMP EC50 (assay 1) (human glucagon receptor [6]): 0.362 nM
cAMP EC50 (assay 1) (human GLP-1 receptor [7]): 0.1 nM
cAMP EC50 (assay 1) [8]: 609 nM
cAMP EC50 (assay 2, 4.4% human serum albumin) (human glucagon receptor [9]): 53.6 nM
cAMP EC50 (assay 2, 3.2% mouse serum albumin) (mouse GLP-1 receptor): 15 nM
cAMP EC50 (assay 2, 3.2% mouse serum albumin) (mouse glucagon receptor): 576 nM
cAMP EC50 (assay 2, 4.4% human serum albumin) (human GLP-1 receptor [10]): 6.54 nM

B3: g319 (peptide)
peptide: HSQGTFTSDYSKYLDSRRAQDFVQWLVAGGPSSGAPPPSK-NH2
cAMP EC50 (assay 1) [11]: 0.0361 nM
cAMP EC50 (assay 1) [12]: 0.0104 nM

B4: G796 (peptide)
peptide: HSQGTFTSDKSSYLDSRRARDFVAWLEAGG
modifications: X10 = K(gE-palm); C-terminal amide
cAMP EC50 (assay 1) (human glucagon receptor [3]): 0.00176 nM
cAMP EC50 (assay 1) (human GLP-1 receptor [4]): 0.013 nM
cAMP EC50 (assay 1) [5]: 14 nM
cAMP EC50 (assay 1) (human glucagon receptor [6]): 0.00181 nM
cAMP EC50 (assay 1) (human GLP-1 receptor [7]): 0.014 nM
cAMP EC50 (assay 1) [8]: 17.4 nM
cAMP EC50 (assay 2, 4.4% human serum albumin) (human glucagon receptor [9]): 0.053 nM
cAMP EC50 (assay 2, 3.2% rat serum albumin) (rat glucagon receptor): 2 nM
cAMP EC50 (assay 2, 3.2% mouse serum albumin) (mouse GLP-1 receptor): 0.13 nM
cAMP EC50 (assay 2, 3.2% mouse serum albumin) (mouse glucagon receptor): 0.034 nM
cAMP EC50 (assay 2, 3.2% rat serum albumin) (rat GLP-1 receptor): 0.023 nM
cAMP EC50 (assay 2, 4.4% human serum albumin) (human GLP-1 receptor [10]): 0.14 nM

B5: G849 (peptide)
peptide: B4 peptide with S12R, R18S
modifications: X10 = K(gE-palm); C-terminal amide
cAMP EC50 (assay 1) (human glucagon receptor [3]): 0.00226 nM
cAMP EC50 (assay 1) (human GLP-1 receptor [4]): 0.009 nM
cAMP EC50 (assay 1) [5]: 17 nM
free peptide at 4.4% HSA [13]: 0.48%
cAMP EC50 (assay 1) (human GLP-1 receptor [7]): 0.00907 nM
cAMP EC50 (assay 1) [8]: 18.1 nM
EC50 at the GLP1R at 0% HSA (calculated) (human GLP-1 receptor [14]): 0.002 nM
cAMP EC50 (assay 2, 4.4% human serum albumin) (human glucagon receptor [9]): 0.079 nM
cAMP EC50 (assay 2, 3.2% rat serum albumin) (rat glucagon receptor): 4.05 nM
cAMP EC50 (assay 2, 3.2% mouse serum albumin) (mouse glucagon receptor): 0.103 nM
cAMP EC50 (assay 2, 3.2% rat serum albumin) (rat GLP-1 receptor): 0.044 nM
cAMP EC50 (assay 2, 4.4% human serum albumin) (human GLP-1 receptor [10]): 0.172 nM

B6: G812 (peptide)
peptide: HSQGTFTSDKSKYLEGQAAKEFIAWLEKGR
modifications: X10 = K(gE-palm); C-terminal amide
cAMP EC50 (assay 1) (human glucagon receptor [3]): 0.00817 nM
cAMP EC50 (assay 1) (human GLP-1 receptor [4]): 0.011 nM
cAMP EC50 (assay 1) [5]: 2.7 nM
cAMP EC50 (assay 2, 4.4% human serum albumin) (human glucagon receptor [9]): 0.764 nM
cAMP EC50 (assay 2, 3.2% rat serum albumin) (rat glucagon receptor): 14.1 nM
cAMP EC50 (assay 2, 3.2% mouse serum albumin) (mouse GLP-1 receptor): 0.13 nM
cAMP EC50 (assay 2, 3.2% mouse serum albumin) (mouse glucagon receptor): 0.947 nM
cAMP EC50 (assay 2, 3.2% rat serum albumin) (rat GLP-1 receptor): 0.019 nM
cAMP EC50 (assay 2, 4.4% human serum albumin) (human GLP-1 receptor [10]): 0.316 nM

B7: g320 (peptide)
peptide: HSQGTFTSDYSKYLDSRRAQDFVQWLVAGGPSSGAPPPSK(Palmitoyl)-NH2
cAMP EC50 (assay 1) [11]: 0.00938 nM
cAMP EC50 (assay 1) [15]: 1.01 nM
cAMP EC50 (assay 1) [12]: 0.0032 nM
